Test results taken from patent US20040180409.

Test system: T1, epitope-tagged (V5) full-length murine TLT-1 (TREM-like transcript-1) expressed in HEK293T cells
T1 sequence: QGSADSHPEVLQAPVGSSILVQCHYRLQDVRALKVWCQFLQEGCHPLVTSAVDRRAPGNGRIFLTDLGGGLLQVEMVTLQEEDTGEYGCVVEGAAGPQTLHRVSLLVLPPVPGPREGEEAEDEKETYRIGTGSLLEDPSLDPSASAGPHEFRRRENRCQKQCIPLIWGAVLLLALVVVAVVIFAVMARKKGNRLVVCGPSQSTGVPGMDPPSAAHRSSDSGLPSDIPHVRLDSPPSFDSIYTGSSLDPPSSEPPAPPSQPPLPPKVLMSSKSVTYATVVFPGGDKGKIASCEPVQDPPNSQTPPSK

For Syk, the “tyrosine phosphorylation of TLT-1 (anti-V5 immunoprecipitation, antiphosphotyrosine immunoblot)” value was “TLT-1 is phosphorylated by Src but not Syk”.
